Results published in the Human Domainome abundance scans (Beltran et al. 2025).
± gives the uncertainty stated by the source.

B1: WW domain-binding protein 4, residues 8 to 43; numbered along this chain, O75554 (parent)
chain: QPKKFCDYCKCWIADNRPSVEFHERGKNHKENVAKR

Variants of: B1
Test: abundance fitness (aPCA) (normalised: wild type 0, dead -1); higher = more abundant; growth selection in yeast, the domain comes from the species named
Conditions: Homo sapiens

Abundance fitness, by site and new letter:
E24: Y -0.183 ± 0.21 | A -0.303 ± 0.072 | P -0.915 ± 0.091 | R -0.497 ± 0.06 | N -0.163 ± 0.11 | G -0.364 ± 0.058 | M -0.451 ± 0.15 | L -0.614 ± 0.098 | K -0.187 ± 0.14 | W -0.413 ± 0.079 | S -0.232 ± 0.078 | F -0.181 ± 0.32 | T -0.549 ± 0.21 | D -0.372 ± 0.15
R25: C -0.133 ± 0.097 | Q 0.049 ± 0.088 | S -0.037 ± 0.073 | K 0 ± 0.078 | W -0.331 ± 0.092 | Y -0.357 ± 0.14 | M 0.079 ± 0.086 | D 0.099 ± 0.095 | P -0.428 ± 0.072 | G 0.039 ± 0.061 | L -0.106 ± 0.066 | A 0.078 ± 0.064 | E -0.039 ± 0.07 | V 0.003 ± 0.073 | T 0.014 ± 0.081
K35: Q -0.093 ± 0.1 | L -0.212 ± 0.086 | N -0.085 ± 0.14 | A 0.216 ± 0.093 | T -0.043 ± 0.093 | V -0.129 ± 0.078 | M -0.092 ± 0.09 | S -0.034 ± 0.068 | C -0.951 ± 0.32 | W 0.017 ± 0.12 | G 0 ± 0.065 | E -0.099 ± 0.095 | D -0.057 ± 0.11 | P -0.002 ± 0.095 | R 0.004 ± 0.076
A34: I 0.089 ± 0.33 | T 0.022 ± 0.09 | P -0.309 ± 0.26 | V -0.088 ± 0.078 | R -0.11 ± 0.061 | W -0.232 ± 0.12 | H -0.001 ± 0.12 | S 0.055 ± 0.14 | L -0.201 ± 0.096 | F -0.385 ± 0.13 | C -0.135 ± 0.1 | D 0.351 ± 0.13 | G -0.036 ± 0.061 | Q -0.289 ± 0.14 | E -0.001 ± 0.13 | K -0.098 ± 0.13
H23: C -0.561 ± 0.11 | S -0.549 ± 0.076 | N -0.967 ± 0.27 | P -0.443 ± 0.11 | M -0.569 ± 0.17 | E -0.6 ± 0.15 | F -0.633 ± 0.4 | T -0.717 ± 0.11 | D -0.387 ± 0.13 | K -0.44 ± 0.15 | L -0.838 ± 0.082 | I -0.884 ± 0.41 | V -0.895 ± 0.094 | W -0.601 ± 0.12 | G -0.689 ± 0.063 | R -0.724 ± 0.061 | A -0.739 ± 0.083
R36: G 0.16 ± 0.065 | P 0.211 ± 0.15 | A 0.023 ± 0.11 | C 0.005 ± 0.14 | Q -0.304 ± 0.2 | W -0.29 ± 0.12 | S -0.032 ± 0.097 | M -0.267 ± 0.2 | K 0.058 ± 0.12 | E 0.245 ± 0.094
H29: A -0.309 ± 0.096 | C -0.464 ± 0.25 | R -0.626 ± 0.084 | Q -0.656 ± 0.14 | W -0.481 ± 0.11 | N -0.444 ± 0.099 | M -0.475 ± 0.25 | S -0.542 ± 0.083 | T -0.63 ± 0.11 | K -0.562 ± 0.21 | Y -0.736 ± 0.18 | P -0.894 ± 0.46 | E -0.325 ± 0.11 | F -1 ± 0.32 | V -0.349 ± 0.12 | D -0.995 ± 0.45
V33: D -0.22 ± 0.098 | L -0.205 ± 0.075 | M -0.074 ± 0.34 | K -0.278 ± 0.076 | N -0.572 ± 0.24 | I -0.404 ± 0.23 | G -0.22 ± 0.058 | T -0.23 ± 0.1 | E 0.022 ± 0.12 | A -0.006 ± 0.079 | F -0.182 ± 0.14 | Q -0.195 ± 0.12 | P -0.315 ± 0.1 | R -0.149 ± 0.066
E31: N -0.346 ± 0.23 | L -0.229 ± 0.071 | P -0.332 ± 0.087 | D -0.093 ± 0.32 | R -0.103 ± 0.063 | C -0.302 ± 0.18 | G -0.153 ± 0.071 | T -0.259 ± 0.12 | K -0.107 ± 0.09 | M -0.065 ± 0.11 | S -0.326 ± 0.13 | Q -0.072 ± 0.14 | V -0.11 ± 0.086 | W -0.955 ± 0.1 | H -0.29 ± 0.2 | A 0.01 ± 0.068
N32: C -0.158 ± 0.1 | Q 0.035 ± 0.1 | M -0.228 ± 0.14 | S -0.086 ± 0.075 | P -0.473 ± 0.32 | F -0.405 ± 0.17 | I -0.446 ± 0.23 | D -0.49 ± 0.23 | L -0.166 ± 0.087 | V -0.294 ± 0.075 | A 0.038 ± 0.08 | R -0.1 ± 0.084 | T -0.142 ± 0.13 | Y -0.289 ± 0.14 | K -0.111 ± 0.11 | H -0.172 ± 0.11 | W -0.115 ± 0.079
G26: E 0.153 ± 0.1 | D 0.015 ± 0.13 | P -0.547 ± 0.11 | I -1 ± 0.28 | M 0.057 ± 0.091 | Q 0.038 ± 0.085 | R -0.228 ± 0.059 | V -0.18 ± 0.068 | C -0.197 ± 0.097 | H 0.08 ± 0.15 | W -0.277 ± 0.068 | K -0.257 ± 0.14 | A -0.072 ± 0.058 | L -0.28 ± 0.079 | T -0.123 ± 0.089 | S 0.04 ± 0.067
N28: L 0.046 ± 0.084 | Q -0.087 ± 0.11 | M 0.326 ± 0.16 | C -0.097 ± 0.2 | P -0.047 ± 0.11 | R 0.149 ± 0.062 | S -0.001 ± 0.17 | G 0.109 ± 0.081 | F 0.106 ± 0.092 | W 0.147 ± 0.1 | V -0.016 ± 0.088 | T -0.102 ± 0.11 | E -0.015 ± 0.078
K27: P -0.226 ± 0.11 | A 0.026 ± 0.069 | D -0.192 ± 0.098 | Q -0.032 ± 0.096 | E 0.036 ± 0.073 | L -0.114 ± 0.061 | M -0.115 ± 0.12 | W -0.218 ± 0.064 | S -0.128 ± 0.1 | G -0.096 ± 0.057 | R -0.08 ± 0.061 | F -0.189 ± 0.13
K30: D -0.265 ± 0.12 | E 0.053 ± 0.07 | V -0.036 ± 0.07 | I 0.085 ± 0.084 | A -0.101 ± 0.069 | P -0.246 ± 0.097 | R 0.049 ± 0.078 | T 0.201 ± 0.099 | S -0.117 ± 0.069 | C 0.022 ± 0.083 | W -0.345 ± 0.071 | L -0.061 ± 0.061 | G -0.019 ± 0.057 | Y -0.391 ± 0.15 | Q -0.02 ± 0.079 | M -0.177 ± 0.14
F22: V 0.085 ± 0.056 | Y -0.224 ± 0.12
